Experimental data taken from publication PMC7825114, “Studying GGDEF Domain in the Act: Minimize Conformational Frustration to Prevent Artefacts” (Life, 2021).

Target: the molecule itself
Assay: SEC; FPLC (AKTA system), buffer A (Table S1); multiple runs on diluted protein to allow c-di-GMP to dissociate on the column

B1: PleD from C. crescentus (enzyme, UniProt Q9A5I5 1-454, looked up)
chain: MSARILVVDDIEANVRLLEAKLTAEYYEVSTAMDGPTALAMAARDLPDIILLDVMMPGMDGFTVCRKLKDDPTTRHIPVVLITALDGRGDRIQGLESGASDFLTKPIDDVMLFARVRSLTRFKLVIDELRQREASGRRMGVIAGAAARLDGLGGRVLIVDDNERQAQRVAAELGVEHRPVIESDPEKAKISAGGPVDLVIVNAAAKNFDGLRFTAALRSEERTRQLPVLAMVDPDDRGRMVKALEIGVNDILSRPIDPQELSARVKTQIQRKRYTDYLRNNLDHSLELAVTDQLTGLHNRRYMTGQLDSLVKRATLGGDPVSALLIDIDFFKKINDTFGHDIGDEVLREFALRLASNVRAIDLPCRYGGEEFVVIMPDTALADALRIAERIRMHVSGSPFTVAHGREMLNVTISIGVSATAGEGDTPEALLKRADEGVYQAKASGRNAVVGKAA
notes: PleD, diguanylate cyclase of C. crescentus; In the functional assay the protein was also used after treatment with NaF and BeCl2 (beryllium fluoride, mimics phosphorylation); source: E. coli BL21 (DE3), purified (Ni2+-IMAC HisTrap, multiple FPLC runs)
**Q.** For B1, which “stoichiometry N” value is on record?
**A.** The value was 2.
